Results published in patent US20260062487A1 (GRITSTONE BIO, published 2026).

Tests used:
[1] = target: T1, HLA-PEPTIDE target A*01:01_… (G2) on cells (human); test: flow cytometry, A375 cells engineered to express the G2 peptide
T1 construct: whole, on cells; also recovered from cell lysates in the IP-MS experiment; also called G2 pHLA; G2 target
Experimental: Tumor cells engineered to express target peptide were harvested, washed in PBS, and stained with eBioscience Fixable Viability Dye eFluor 450 for 15 minutes at room temperature. Following another wash in PBS+1-2% FBS, cells were resuspended with the indicated molecules at varying concentrations and incubated for 1 hour at 4° C. After another wash, PE-conjugated goat anti-human IgG secondary antibody (Jackson ImmunoResearch) was added at 1:100 to 1:200 for 30 minutes at 4° C. After washing in PBS+1-2% FBS, cells were resuspended in PBS+1-2% FBS and analyzed by flow cytometry. Flow cytometric analysis was performed on the Attune NxT Flow Cytometer (ThermoFisher) using the Attune NxT Software. Data was analyzed using FlowJo.

[2] = target: T2, biotinylated refolded G2-pHLA (A*01:01/b2m/…) (human, biotinylated at the C-terminal AviTag); test: BLI (ForteBio Octet HTX), biotinylated G2-pHLA captured on streptavidin SAX biosensor, antibody in solution, 1:1 kinetic model
T2 construct: Soluble complex caught on streptavidin sensors or MSD plates; also called G2-peptide A*01:01/b2m complex; WT
Text: (§1) The biosensors were then dipped in assay buffer for a baseline. […] The biosensors were finally dipped into wells containing assay buffer to measure the dissociation rate for another 50 seconds. Referencing was completed by having a biosensor with no immobilized ligand dipped into analyte. Kinetic data was processed with Octet™ software using a 1:1 kinetic model with errors within 10%, X² below 3, and R² above 0.9.

[3] = target: T2, biotinylated refolded G2-pHLA …; test: BLI (Octet), biotinylated pHLA on streptavidin sensor, bivalent antibody as analyte (apparent affinity)
Text: as §1

[4] = target: biotinylated G5-pHLA (HLA-B*35:01 with …) (human); test: BLI (ForteBio Octet HTX), biotinylated G5-pHLA captured on streptavidin SAX biosensor, antibody in solution, 1:1 Fit
Text: as §1

[5] = target: biotinylated G5-pHLA (HLA-B*35:01 with …) (human); test: BLI (ForteBio Octet HTX), biotinylated G5-pHLA captured on streptavidin SAX biosensor, antibody in solution, 1:2 Fit
[6] = target: T2, biotinylated refolded G2-pHLA …; test: BLI (ForteBio Octet HTX), biotinylated G2-pHLA captured on streptavidin SAX biosensor, antibody in solution, 1:2 Fit
[7] = target: T2, biotinylated refolded G2-pHLA …; test: BLI (ForteBio Octet HTX), biotinylated G2-pHLA captured on streptavidin SAX biosensor, antibody in solution, 1:1 Fit
Text: as §1

[8] = target: T3, CD3 on CD3+ Jurkat cells (human, UniProt P07766 23-207); test: flow cytometry, anti IgG PE, CD3+ Jurkat cells
T3 construct: whole, on cells
Experimental: Increasing concentrations of the antibodies were incubated with CD3(+) and CD9(−) Jurkat cells. Binding was determined by flow cytometery using an anti IgG-PE antibody for detection.

[9] = target: T1, HLA-PEPTIDE target A*01:01_… (G2) on …; test: flow cytometry, anti IgG PE, A375 9mer cells (1e6 copies per cell)
Experimental: A375 transduced with luciferase alone served as the negative control. […] Binding was determined by flow cytometery using an anti IgG-PE antibody for detection.

T3 sequence (P07766 23-207): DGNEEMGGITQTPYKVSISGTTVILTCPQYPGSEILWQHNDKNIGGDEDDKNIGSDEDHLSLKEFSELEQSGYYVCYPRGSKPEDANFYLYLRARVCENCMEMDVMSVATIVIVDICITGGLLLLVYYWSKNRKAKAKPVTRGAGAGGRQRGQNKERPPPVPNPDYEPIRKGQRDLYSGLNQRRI

B1: Format 4-G2(1H11) hOKT3a with engineered VH44/VL100 disulfide bond (DSB) (bispecific antibody, human IgG1, kappa, N297Q)
chain: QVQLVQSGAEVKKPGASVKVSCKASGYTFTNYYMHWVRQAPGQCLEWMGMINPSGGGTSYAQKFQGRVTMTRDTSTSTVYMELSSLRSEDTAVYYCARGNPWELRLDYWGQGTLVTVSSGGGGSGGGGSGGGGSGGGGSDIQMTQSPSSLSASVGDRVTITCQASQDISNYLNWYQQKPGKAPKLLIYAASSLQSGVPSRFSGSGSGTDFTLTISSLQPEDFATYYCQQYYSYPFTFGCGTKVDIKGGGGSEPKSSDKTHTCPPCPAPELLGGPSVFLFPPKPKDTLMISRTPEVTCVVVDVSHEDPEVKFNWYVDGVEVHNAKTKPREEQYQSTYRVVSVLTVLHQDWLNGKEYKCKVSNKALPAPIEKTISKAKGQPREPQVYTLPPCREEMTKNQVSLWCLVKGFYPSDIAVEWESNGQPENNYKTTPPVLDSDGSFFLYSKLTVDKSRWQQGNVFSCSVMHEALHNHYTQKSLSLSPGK
heavy: QVQLVQSGAEVKKPGASVKVSCKASGYTFTNYYMHWVRQAPGQCLEWMGMINPSGGGTSYAQKFQGRVTMTRDTSTSTVYMELSSLRSEDTAVYYCARGNPWELRLDYWGQGTLVTVSSGGGGSGGGGSGGGGSGGGGSDIQMTQSPSSLSASVGDRVTITCQASQDISNYLNWYQQKPGKAPKLLIYAASSLQSGVPSRFSGSGSGTDFTLTISSLQPEDFATYYCQQYYSYPFTFGCGTKVDIKGGGGSGGGGSQVQLVQSGAEVKKPGASVKVSCKASGYTFTRYTMHWVRQAPGQGLEWMGYINPSRGYTNYNQKFKDRVTLTTDKSSSTAYMELSSLRSEDTAVYYCARYYDDHYSLDYWGQGTLVTVSSASTKGPSVFPLAPSSKSTSGGTAALGCLVKDYFPEPVTVSWNSGALTSGVHTFPAVLQSSGLYSLSSVVTVPSSSLGTQTYICNVNHKPSNTKVDKRVEPKSCDKTHTCPPCPAPELLGGPSVFLFPPKPKDTLMISRTPEVTCVVVDVSHEDPEVKFNWYVDGVEVHNAKTKPREEQYQSTYRVVSVLTVLHQDWLNGKEYKCKVSNKALPAPIEKTISKAKGQPREPQVCTLPPSREEMTKNQVSLSCAVKGFYPSDIAVEWESNGQPENNYKTTPPVLDSDGSFFLVSKLTVDKSRWQQGNVFSCSVMHEALHNRFTQKSLSLSPGK
light: DIQMTQSPSSLSASVGDRVTITCSASSSVSYMNWYQQKPGKAPKRLIYDTSKLASGVPSRFSGSGSGTDFTLTISSLQPEDFATYYCQQWSSNPFTFGQGTKLEIKRTVAAPSVFIFPPSDEQLKSGTASVVCLLNNFYPREAKVQWKVDNALQSGNSQESVTEQDSKDSTYSLSSTLTLSKADYEKHKVYACEVTHQGLSSPVTKSFNRGEC
notes: also called 4-G2(1H11)-H44/L100 hOKT3a-TM; Format 4 G2(1H11)-hOKT3_DSBH44/L100
[1]
  EC50: 1750 nM
[2]
  koff: 0.025 s⁻¹
[3]
  Kd: 35.1 nM

B2: 41-G5(1C12) hOKT3a (Format 4-G5(1C12) hOKT3a with shortened 10 amino acid L1 and L2 linkers) (bispecific antibody, human IgG1, kappa, N297Q)
chain: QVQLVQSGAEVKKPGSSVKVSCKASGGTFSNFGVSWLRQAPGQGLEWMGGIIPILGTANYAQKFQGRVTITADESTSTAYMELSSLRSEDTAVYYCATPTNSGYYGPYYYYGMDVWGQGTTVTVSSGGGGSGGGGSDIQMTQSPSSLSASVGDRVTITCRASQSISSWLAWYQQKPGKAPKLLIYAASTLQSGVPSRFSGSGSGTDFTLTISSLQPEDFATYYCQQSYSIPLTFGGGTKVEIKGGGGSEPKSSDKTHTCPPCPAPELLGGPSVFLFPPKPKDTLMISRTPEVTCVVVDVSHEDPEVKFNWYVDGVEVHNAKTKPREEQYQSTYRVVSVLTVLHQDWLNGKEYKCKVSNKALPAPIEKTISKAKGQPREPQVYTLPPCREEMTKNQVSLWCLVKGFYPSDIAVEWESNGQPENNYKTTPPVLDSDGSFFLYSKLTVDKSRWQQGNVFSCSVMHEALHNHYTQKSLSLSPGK
heavy: QVQLVQSGAEVKKPGSSVKVSCKASGGTFSNFGVSWLRQAPGQGLEWMGGIIPILGTANYAQKFQGRVTITADESTSTAYMELSSLRSEDTAVYYCATPTNSGYYGPYYYYGMDVWGQGTTVTVSSGGGGSGGGGSDIQMTQSPSSLSASVGDRVTITCRASQSISSWLAWYQQKPGKAPKLLIYAASTLQSGVPSRFSGSGSGTDFTLTISSLQPEDFATYYCQQSYSIPLTFGGGTKVEIKGGGGSGGGGSQVQLVQSGAEVKKPGASVKVSCKASGYTFTRYTMHWVRQAPGQGLEWMGYINPSRGYTNYNQKFKDRVTLTTDKSSSTAYMELSSLRSEDTAVYYCARYYDDHYSLDYWGQGTLVTVSSASTKGPSVFPLAPSSKSTSGGTAALGCLVKDYFPEPVTVSWNSGALTSGVHTFPAVLQSSGLYSLSSVVTVPSSSLGTQTYICNVNHKPSNTKVDKRVEPKSCDKTHTCPPCPAPELLGGPSVFLFPPKPKDTLMISRTPEVTCVVVDVSHEDPEVKFNWYVDGVEVHNAKTKPREEQYQSTYRVVSVLTVLHQDWLNGKEYKCKVSNKALPAPIEKTISKAKGQPREPQVCTLPPSREEMTKNQVSLSCAVKGFYPSDIAVEWESNGQPENNYKTTPPVLDSDGSFFLVSKLTVDKSRWQQGNVFSCSVMHEALHNRFTQKSLSLSPGK
light: DIQMTQSPSSLSASVGDRVTITCSASSSVSYMNWYQQKPGKAPKRLIYDTSKLASGVPSRFSGSGSGTDFTLTISSLQPEDFATYYCQQWSSNPFTFGQGTKLEIKRTVAAPSVFIFPPSDEQLKSGTASVVCLLNNFYPREAKVQWKVDNALQSGNSQESVTEQDSKDSTYSLSSTLTLSKADYEKHKVYACEVTHQGLSSPVTKSFNRGEC
notes: also called 4-G5(1C12)_10AAL hOKT3a; G5(1C12)_10AAL
[4]
  Kd: 2.2 nM
  koff: 0.00279 s⁻¹
  kon: 1.27e+06 M⁻¹ s⁻¹
[5]
  Kd: 16.1 nM
  koff: 0.00652 s⁻¹
  kon: 405000 M⁻¹ s⁻¹

B3: Format 4-G2(1H11) hOKT3a with shortened 10 amino acid L1 and L2 linkers (bispecific antibody, human IgG1, kappa, N297Q)
chain: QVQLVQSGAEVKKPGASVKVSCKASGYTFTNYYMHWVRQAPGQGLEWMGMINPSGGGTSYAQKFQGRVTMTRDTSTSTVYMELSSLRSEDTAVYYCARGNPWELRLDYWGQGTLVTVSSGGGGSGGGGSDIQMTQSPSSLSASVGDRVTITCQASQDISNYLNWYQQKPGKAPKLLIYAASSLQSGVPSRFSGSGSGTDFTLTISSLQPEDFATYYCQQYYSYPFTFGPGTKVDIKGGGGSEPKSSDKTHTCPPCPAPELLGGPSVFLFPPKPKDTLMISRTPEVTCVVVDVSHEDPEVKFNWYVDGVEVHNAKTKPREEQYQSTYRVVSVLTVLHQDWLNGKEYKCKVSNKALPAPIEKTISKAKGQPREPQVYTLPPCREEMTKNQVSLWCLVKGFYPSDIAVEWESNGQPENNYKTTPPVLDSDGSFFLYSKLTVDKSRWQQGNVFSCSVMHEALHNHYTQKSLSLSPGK
heavy: QVQLVQSGAEVKKPGASVKVSCKASGYTFTNYYMHWVRQAPGQGLEWMGMINPSGGGTSYAQKFQGRVTMTRDTSTSTVYMELSSLRSEDTAVYYCARGNPWELRLDYWGQGTLVTVSSGGGGSGGGGSDIQMTQSPSSLSASVGDRVTITCQASQDISNYLNWYQQKPGKAPKLLIYAASSLQSGVPSRFSGSGSGTDFTLTISSLQPEDFATYYCQQYYSYPFTFGPGTKVDIKGGGGSGGGGSQVQLVQSGAEVKKPGASVKVSCKASGYTFTRYTMHWVRQAPGQGLEWMGYINPSRGYTNYNQKFKDRVTLTTDKSSSTAYMELSSLRSEDTAVYYCARYYDDHYSLDYWGQGTLVTVSSASTKGPSVFPLAPSSKSTSGGTAALGCLVKDYFPEPVTVSWNSGALTSGVHTFPAVLQSSGLYSLSSVVTVPSSSLGTQTYICNVNHKPSNTKVDKRVEPKSCDKTHTCPPCPAPELLGGPSVFLFPPKPKDTLMISRTPEVTCVVVDVSHEDPEVKFNWYVDGVEVHNAKTKPREEQYQSTYRVVSVLTVLHQDWLNGKEYKCKVSNKALPAPIEKTISKAKGQPREPQVCTLPPSREEMTKNQVSLSCAVKGFYPSDIAVEWESNGQPENNYKTTPPVLDSDGSFFLVSKLTVDKSRWQQGNVFSCSVMHEALHNRFTQKSLSLSPGK
light: DIQMTQSPSSLSASVGDRVTITCSASSSVSYMNWYQQKPGKAPKRLIYDTSKLASGVPSRFSGSGSGTDFTLTISSLQPEDFATYYCQQWSSNPFTFGQGTKLEIKRTVAAPSVFIFPPSDEQLKSGTASVVCLLNNFYPREAKVQWKVDNALQSGNSQESVTEQDSKDSTYSLSSTLTLSKADYEKHKVYACEVTHQGLSSPVTKSFNRGEC
notes: also called 4-G2(1H11)-10AAL hOKT3a; G2(1H11)_10AAL
[6]
  Kd: 301 nM
  koff: 0.0746 s⁻¹
  kon: 248000 M⁻¹ s⁻¹
[7]
  Kd: 6.35 nM
  koff: 0.00608 s⁻¹
  kon: 958000 M⁻¹ s⁻¹

B4: 41-E07 hSP34x (Format 41 31E07-CD3 bispecific antibody) (bispecific antibody)
chain: QVQLVQSGAEVKKPGASVKVSCKASGFTFTNYLIHWVRQAPGQGLEWMGWINPNSGGTNYAQRLQGRVTMTRDTSTSTVYMELSSLRSEDTAVYYCARDYGAGNDYWGQGTLVTVSSGGGGSGGGGSDIQMTQSPSSLSASVGDRVTITCRASQEIRRWLAWYQQKPGKAPKLLIYAASNLQSGVPSRFSGSGSGTDFTLTISSLQPEDFATYYCQQSYSTPYTFGQGTKLEIKGGGGSEPKSSDKTHTCPPCPAPEFEGGPSVFLFPPKPKDTLMISRTPEVTCVVVDVSHEDPEVKFNWYVDGVEVHNAKTKPREEQYNSTYRVVSVLTVLHQDWLNGKEYKCKVSNKALPASIEKTISKAKGQPREPQVYTLPPCREEMTKNQVSLWCLVKGFYPSDIAVEWESNGQPENNYKTTPPVLDSDGSFFLYSKLTVDKSRWQQGNVFSCSVMHEALHNHYTQKSLSLSPGK
heavy: QVQLVQSGAEVKKPGASVKVSCKASGFTFTNYLIHWVRQAPGQGLEWMGWINPNSGGTNYAQRLQGRVTMTRDTSTSTVYMELSSLRSEDTAVYYCARDYGAGNDYWGQGTLVTVSSGGGGSGGGGSDIQMTQSPSSLSASVGDRVTITCRASQEIRRWLAWYQQKPGKAPKLLIYAASNLQSGVPSRFSGSGSGTDFTLTISSLQPEDFATYYCQQSYSTPYTFGQGTKLEIKGGGGSGGGGSEVQLVESGGGLVQPGGSLRLSCAASGFTFSTYAMNWVRQAPGKGLEWVGRIRSKYNNYATYYADSVKGRFTISRDDSKNTLYLQMNSLRAEDTAVYYCVRHGNFGDSYVSWFAYWGQGTLVTVSSASTKGPSVFPLAPSSKSTSGGTAALGCLVKDYFPEPVTVSWNSGALTSGVHTFPAVLQSSGLYSLSSVVTVPSSSLGTQTYICNVNHKPSNTKVDKRVEPKSCDKTHTCPPCPAPEFEGGPSVFLFPPKPKDTLMISRTPEVTCVVVDVSHEDPEVKFNWYVDGVEVHNAKTKPREEQYNSTYRVVSVLTVLHQDWLNGKEYKCKVSNKALPASIEKTISKAKGQPREPQVCTLPPSREEMTKNQVSLSCAVKGFYPSDIAVEWESNGQPENNYKTTPPVLDSDGSFFLVSKLTVDKSRWQQGNVFSCSVMHEALHNRFTQKSLSLSPGK
light: QAVVTQEPSLTVSPGGTVTLTCGSSTGAVTTSNYANWVQQKPGKSPRGLIGGTNKRAPGVPARFSGSLLGGKAALTISGAQPEDEADYYCALWYSNHWVFGGGTKLTVLRTVAAPSVFIFPPSDEQLKSGTASVVCLLNNFYPREAKVQWKVDNALQSGNSQESVTEQDSKDSTYSLSSTLTLSKADYEKHKVYACEVTHQGLSSPVTKSFNRGEC
notes: also called 41-31E07-hSP34x
[8]
  EC50 (read off the curve): ~6 nM
[9]
  EC50 (read off the curve): ~2 nM
